Article PMC7959576 (Proceedings of the National Academy of Sciences of the …, 2020)

B1: CHK-263 IgG (antibody, V domains shown)
VH: VQLQQSGAELVKPGASVKISCKASGYAFSSYWMNWVKQRPGKGLEWIGQIYPGDGDTNYNGKFKGKATLTADKSSSTAYMQLSSLTSEDSAVYFCARGGLTIDYWGQGTTLTVSS
VL: DIVLTQSPATLSVTPGDSVSLSCRASQSISDNLHWYQQKSHESPGLLIKYASQSISGIPSRFSGSGSGTDFTLSINSVETEDFGMYFCQQSNSWPYTFGGGTKLEIK
B2: CHK-124 IgG (antibody, V domains shown)
VH: QLQESGGGLVQPGGSMKLSCVASGFTFSNYWMNWVRQSPEKGLEWVAQIRLKSDSYATYYADSVKGRFTVSRDDSKSNVYLQMNSLRAEDTGIYYCTDFYGFGDFFPYWGQGTLVTVSS
VL: DIVMTQSPKFMSTSIGDRVSVTCQASQNVGTNVAWYQQKPGQSPKPLIYSASYRYSGVPGRFTGSGSGTDFTLTINNVQSEDLADYFCQQYNSFPLTFGAGTKLELK

Molecular target: CHIKV VLPs, E1-E2 heterodimers on the particle surface (Chikungunya virus, VLP strain not …, UniProt Q5XXP3)
Assay: ELISA

Chain of CHIKV VLPs, E1-E2 heterodimers on the particle surface (Q5XXP3 whole entry, looked up, one chain of several): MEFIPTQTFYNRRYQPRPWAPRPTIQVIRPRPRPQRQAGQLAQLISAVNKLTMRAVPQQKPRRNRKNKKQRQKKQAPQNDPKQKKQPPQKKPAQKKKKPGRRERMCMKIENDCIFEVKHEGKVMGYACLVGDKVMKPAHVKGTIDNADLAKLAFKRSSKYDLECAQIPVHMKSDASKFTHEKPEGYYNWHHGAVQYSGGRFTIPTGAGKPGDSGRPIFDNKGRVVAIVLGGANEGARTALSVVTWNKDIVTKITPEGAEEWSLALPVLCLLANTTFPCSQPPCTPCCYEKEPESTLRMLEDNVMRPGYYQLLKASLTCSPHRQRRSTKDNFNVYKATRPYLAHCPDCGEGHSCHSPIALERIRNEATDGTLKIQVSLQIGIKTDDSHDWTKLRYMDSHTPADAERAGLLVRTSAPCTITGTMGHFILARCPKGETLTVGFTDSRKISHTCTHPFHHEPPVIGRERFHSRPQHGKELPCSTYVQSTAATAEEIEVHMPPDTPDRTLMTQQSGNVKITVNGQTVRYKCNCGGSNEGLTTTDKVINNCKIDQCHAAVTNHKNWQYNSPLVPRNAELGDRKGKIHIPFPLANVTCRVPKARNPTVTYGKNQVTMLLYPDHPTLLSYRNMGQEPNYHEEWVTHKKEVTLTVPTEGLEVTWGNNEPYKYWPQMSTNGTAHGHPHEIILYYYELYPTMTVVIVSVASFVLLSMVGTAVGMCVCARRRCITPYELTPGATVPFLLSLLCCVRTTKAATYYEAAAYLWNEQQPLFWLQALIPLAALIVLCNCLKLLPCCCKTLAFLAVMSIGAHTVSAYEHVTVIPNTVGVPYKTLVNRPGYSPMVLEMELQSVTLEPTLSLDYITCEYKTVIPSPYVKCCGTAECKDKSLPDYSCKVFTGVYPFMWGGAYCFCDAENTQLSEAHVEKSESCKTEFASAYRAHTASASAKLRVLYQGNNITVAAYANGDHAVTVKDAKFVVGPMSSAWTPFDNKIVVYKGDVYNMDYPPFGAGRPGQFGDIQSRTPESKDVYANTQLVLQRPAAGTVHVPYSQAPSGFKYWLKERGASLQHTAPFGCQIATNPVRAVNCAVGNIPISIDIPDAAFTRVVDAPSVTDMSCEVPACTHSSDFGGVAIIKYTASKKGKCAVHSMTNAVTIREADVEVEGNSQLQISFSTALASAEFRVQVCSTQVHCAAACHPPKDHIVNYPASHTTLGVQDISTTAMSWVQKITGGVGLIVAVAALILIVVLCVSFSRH

Binder | binding result
B1 | binds
B2 | binds
